# Reference: paper PMC5125619 (Nature, 2016)
# Columns and labels:
# [1] = target: FAM-labelled RBBP5 peptide (residues 330–363) mixed with ASH2L(SPRY) (human) (UniProt Q15291); test: fluorescence polarisation
# MLL3 SET domain = MLL3 SET domain (human, UniProt Q8NEZ4 4757-4911); test: crystal structure
# Chain of MLL3 SET domain (human, UniProt Q8NEZ4 4757-4911) (Q8NEZ4 4757-4911): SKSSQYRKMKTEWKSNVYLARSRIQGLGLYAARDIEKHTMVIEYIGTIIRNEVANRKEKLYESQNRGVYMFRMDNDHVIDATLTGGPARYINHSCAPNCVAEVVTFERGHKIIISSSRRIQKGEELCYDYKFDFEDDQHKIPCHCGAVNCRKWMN
# Chain of MLL1 SET domain (Q03164 3829-3945): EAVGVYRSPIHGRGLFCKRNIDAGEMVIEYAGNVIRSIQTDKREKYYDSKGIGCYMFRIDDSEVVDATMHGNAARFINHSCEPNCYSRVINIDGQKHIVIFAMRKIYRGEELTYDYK
# Chain of MLL3 SET domain (from UniProt Q8NEZ4 4757-4911) (domain or fragment) (Q8NEZ4 4757-4911): as the sequence (Q8NEZ4 4757-4911) above
Kd [1],binding result (MLL3 SET domain),Molecule
> 100000 nM,,MLL1 SET domain (from UniProt Q03164 3829-3945) (domain or fragment)
100 nM,,MLL3 SET domain (from UniProt Q8NEZ4 4757-4911) (domain or fragment)
,binds,ARTKQTARK [H3 peptide (H3 residues 1–9)]
